# In US20150038682A1:
# Target: death receptor 4 (DR4) on Ramos cells (human) (UniProt O00220)
# Assay: cell-based or functional assay
binder,measurement,value
"HuYON007 IgG1 (antibody, V domains shown) VH: QVTLRESGPALVKPTQTLTLTCTFSGFSLSTSGMGVSWIRQPPGKALEWLAHIYWDDDKRYNPSLKSRLTISKDTSKNQVVLTMTNMDPVDTATYYCTRRGEYGNFDYWGQGTLVTVSS VL: QTVVTQEPSFSVSPGGTVTLTCRSSSGAVTTSNFANWVQQTPGQAPRGLIGGTNNRAPGVPDRFSGSLLGNKAALTITGAQADDESDYYCALWYSNHWVFGGGTKLTVL",viability of Ramos cells at 6.2 ng/ml antibody,100%
same,"viability of Ramos cells at 111 ng/ml antibody (alamar Blue, overnight)",78.3%
